B1: WEE1 (parent)
chain: FLGSSFSPVRCGGPGDASPRGCGA
B2: DCAF4 (parent)
chain: DSHILLCLMGLAETPGCATLLPAS

Variants of: B1
Assay: protein stability index of a GFP-peptide fusion (GPS, HEK-293T) (PSI 1-6); higher = more stable
Settings: c terminus: a fixed tail appended
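Also: lentivirally expressed fusions sorted by FACS into six bins by GFP to DsRed ratio, PSI derived from sequencing read proportions per bin multiplied by bin number.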

In order of rising protein stability index:
1. FTGSSFSPVRCGGPGDASPRGCGA  1.6
2. FQGSSFSPVRCGGPGDASPRGCGA  1.85
3. YLGSSFSPVRCGGPGDASPRGCGA  1.87
4. FGGSSFSPVRCGGPGDASPRGCGA  1.93
5. FCGSSFSPVRCGGPGDASPRGCGA  1.95
6. FHGSSFSPVRCGGPGDASPRGCGA  2.02
7. FPGSSFSPVRCGGPGDASPRGCGA  2.04
8. FAGSSFSPVRCGGPGDASPRGCGA  2.06
9. FMGSSFSPVRCGGPGDASPRGCGA  2.07
10. WLGSSFSPVRCGGPGDASPRGCGA  2.16
11. FYGSSFSPVRCGGPGDASPRGCGA  2.19
12. MLGSSFSPVRCGGPGDASPRGCGA  2.29
13. FWGSSFSPVRCGGPGDASPRGCGA  2.35
14. FNGSSFSPVRCGGPGDASPRGCGA  2.45
15. RLGSSFSPVRCGGPGDASPRGCGA  2.46
16. NLGSSFSPVRCGGPGDASPRGCGA  2.48
17. FFGSSFSPVRCGGPGDASPRGCGA  2.51
18. LLGSSFSPVRCGGPGDASPRGCGA  2.56
19. ILGSSFSPVRCGGPGDASPRGCGA  2.72
20. TLGSSFSPVRCGGPGDASPRGCGA  2.82
21. CLGSSFSPVRCGGPGDASPRGCGA  2.82
22. SLGSSFSPVRCGGPGDASPRGCGA  2.87
23. ALGSSFSPVRCGGPGDASPRGCGA  2.89
24. KLGSSFSPVRCGGPGDASPRGCGA  2.95
25. DLGSSFSPVRCGGPGDASPRGCGA  2.95
26. FKGSSFSPVRCGGPGDASPRGCGA  3.1
27. FRGSSFSPVRCGGPGDASPRGCGA  3.13
28. FSGSSFSPVRCGGPGDASPRGCGA  3.18
29. GLGSSFSPVRCGGPGDASPRGCGA  3.25
30. HLGSSFSPVRCGGPGDASPRGCGA  3.26
31. QLGSSFSPVRCGGPGDASPRGCGA  3.36
32. FDGSSFSPVRCGGPGDASPRGCGA  3.37
33. PLGSSFSPVRCGGPGDASPRGCGA  3.4
34. FEGSSFSPVRCGGPGDASPRGCGA  3.41
35. VLGSSFSPVRCGGPGDASPRGCGA  3.77

Variants of: B2
Assay: as above
Settings: c terminus: a fixed tail appended

In order of falling protein stability index:
1. DSHILLCLMGLAETPGCCTLLPAS  4.64
2. DSHILLCLMGLAETPGCATLLPAC  4.56
3. DSHILLCLMGLAETPGCATLHPAS  4.41
4. DSHILLCLMGLAETPGCATLLPAT  3.75
5. DSHILLCLMGLAETPGCATALPAS  3.72
6. DSHILLCLMGLAETPGCMTLLPAS  3.66
7. DSHILLCLMGLAETPGCATLFPAS  3.52
8. DSHILLCLMGLAETPGCATYLPAS  3.25
9. DSHILLCLMGLAETPGCLTLLPAS  3.23
10. DSHILLCLMGLAETPGCATFLPAS  3.14
11. DSHILLCLMGLAETPGCATLAPAS  3.11
12. DSHILLCLMGLAETPGCRTLLPAS  3.11
13. DSHILLCLMGLAETPGCATLNPAS  3.01
14. DSHILLCLMGLAETPGCATLLPAY  2.91
15. DSHILLCLMGLAETPGCATCLPAS  2.91
16. DSHILLCLMGLAETPGCATNLPAS  2.9
17. DSHILLCLMGLAETPGCATLLPAI  2.82
18. DSHILLCLMGLAETPGCKTLLPAS  2.82
19. DSHILLCLMGLAETPGCATLWPAS  2.8
20. DSHILLCLMGLAETPGCATLLPAW  2.76
21. DSHILLCLMGLAETPGCATLLPAN  2.69
22. DSHILLCLMGLAETPGCPTLLPAS  2.65
23. DSHILLCLMGLAETPGCATSLPAS  2.54
24. DSHILLCLMGLAETPGCATMLPAS  2.52
25. DSHILLCLMGLAETPGCYTLLPAS  2.47
26. DSHILLCLMGLAETPGCATGLPAS  2.44
27. DSHILLCLMGLAETPGCATKLPAS  2.4
28. DSHILLCLMGLAETPGCDTLLPAS  2.39
29. DSHILLCLMGLAETPGCATILPAS  2.38
30. DSHILLCLMGLAETPGCATLLPAP  2.36
31. DSHILLCLMGLAETPGCATHLPAS  2.36
32. DSHILLCLMGLAETPGCATDLPAS  2.36
33. DSHILLCLMGLAETPGCATVLPAS  2.36
34. DSHILLCLMGLAETPGCATRLPAS  2.34
35. DSHILLCLMGLAETPGCITLLPAS  2.33
36. DSHILLCLMGLAETPGCFTLLPAS  2.32
37. DSHILLCLMGLAETPGCETLLPAS  2.31
38. DSHILLCLMGLAETPGCTTLLPAS  2.3
39. DSHILLCLMGLAETPGCHTLLPAS  2.28
40. DSHILLCLMGLAETPGCATLPPAS  2.25
41. DSHILLCLMGLAETPGCATLGPAS  2.21
42. DSHILLCLMGLAETPGCATLVPAS  2.17
43. DSHILLCLMGLAETPGCATLLPAR  2.1
44. DSHILLCLMGLAETPGCNTLLPAS  2.07
45. DSHILLCLMGLAETPGCATTLPAS  2.07
46. DSHILLCLMGLAETPGCATLTPAS  2.04
47. DSHILLCLMGLAETPGCQTLLPAS  2.02
48. DSHILLCLMGLAETPGCATPLPAS  2
49. DSHILLCLMGLAETPGCATQLPAS  1.93
50. DSHILLCLMGLAETPGCATLLPAD  1.92
51. DSHILLCLMGLAETPGCVTLLPAS  1.92
52. DSHILLCLMGLAETPGCATELPAS  1.9
53. DSHILLCLMGLAETPGCATLLPAE  1.74
54. DSHILLCLMGLAETPGCATLEPAS  1.72
55. DSHILLCLMGLAETPGCATLDPAS  1.71
56. DSHILLCLMGLAETPGCATLSPAS  1.65
57. DSHILLCLMGLAETPGCSTLLPAS  1.6
58. DSHILLCLMGLAETPGCATLLPAA  1.39
59. DSHILLCLMGLAETPGCGTLLPAS  1.11

From the supplement of paper PMC10567573
